Reference: US20240100162A1 (published 2024)

Key:
Test in all cases: killing
[1] = target: T1, MAGE-B2 peptide, E6A peptide on HLA-A*02:01 (human)
T1 peptide: GVYDGAEHSV

[2] = target: T2, MAGE-B2 peptide, E6F peptide on HLA-A*02:01 (human)
T2 peptide: GVYDGFEHSV

[3] = target: T3, MAGE-B2 peptide, E6I peptide on HLA-A*02:01 (human)
T3 peptide: GVYDGIEHSV

[4] = target: T4, MAGE-B2 peptide, E6K peptide on HLA-A*02:01 (human)
T4 peptide: GVYDGKEHSV

[5] = target: T5, MAGE-B2 peptide, E6P peptide on HLA-A*02:01 (human)
T5 peptide: GVYDGPEHSV

[6] = target: T6, MAGE-B2 peptide, E6R peptide on HLA-A*02:01 (human)
T6 peptide: GVYDGREHSV

[7] = target: T7, MAGE-B2 peptide, E6Y peptide on HLA-A*02:01 (human)
T7 peptide: GVYDGYEHSV

[8] = target: T8, MAGE-B2 peptide, E7G peptide on HLA-A*02:01 (human)
T8 peptide: GVYDGEGHSV

[9] = target: T9, MAGE-B2 peptide, E7R peptide on HLA-A*02:01 (human)
T9 peptide: GVYDGERHSV

[10] = target: T10, MAGE-B2 peptide, V10Y peptide on HLA-A*02:01 (human)
T10 peptide: GVYDGEEHSY

[11] = target: T11, MAGE-B2 peptide, G5A peptide on HLA-A*02:01 (human)
T11 peptide: GVYDAEEHSV

[12] = target: T12, MAGE-B2 peptide, G5P peptide on HLA-A*02:01 (human)
T12 peptide: GVYDPEEHSV

[13] = target: T13, MAGE-B2 peptide, E6D peptide on HLA-A*02:01 (human)
T13 peptide: GVYDGDEHSV

[14] = target: T14, MAGE-B2 peptide, E6N peptide on HLA-A*02:01 (human)
T14 peptide: GVYDGNEHSV

[15] = target: T15, MAGE-B2 peptide, G5R peptide on HLA-A*02:01 (human)
T15 peptide: GVYDREEHSV

[16] = target: T16, MAGE-B2 peptide, G1C peptide on HLA-A*02:01 (human)
T16 peptide: CVYDGEEHSV

[17] = target: T17, MAGE-B2 peptide, G1D peptide on HLA-A*02:01 (human)
T17 peptide: DVYDGEEHSV

[18] = target: T18, MAGE-B2 peptide, G1H peptide on HLA-A*02:01 (human)
T18 peptide: HVYDGEEHSV

[19] = target: T19, MAGE-B2 peptide, G1I peptide on HLA-A*02:01 (human)
T19 peptide: IVYDGEEHSV

[20] = target: T20, MAGE-B2 peptide, V10T peptide on HLA-A*02:01 (human)
T20 peptide: GVYDGEEHST

[21] = target: T21, MAGE-B2 peptide, G1L peptide on HLA-A*02:01 (human)
T21 peptide: LVYDGEEHSV

[22] = target: T22, MAGE-B2 peptide, G1M peptide on HLA-A*02:01 (human)
T22 peptide: MVYDGEEHSV

[23] = target: T23, MAGE-B2 peptide, G1N peptide on HLA-A*02:01 (human)
T23 peptide: NVYDGEEHSV

[24] = target: T24, MAGE-B2 peptide, G1P peptide on HLA-A*02:01 (human)
T24 peptide: PVYDGEEHSV

[25] = target: T25, MAGE-B2 peptide, G1Q peptide on HLA-A*02:01 (human)
T25 peptide: QVYDGEEHSV

[26] = target: T26, MAGE-B2 peptide, G1S peptide on HLA-A*02:01 (human)
T26 peptide: SVYDGEEHSV

[27] = target: T27, MAGE-B2 peptide, G1T peptide on HLA-A*02:01 (human)
T27 peptide: TVYDGEEHSV

[28] = target: T28, MAGE-B2 peptide, G1V peptide on HLA-A*02:01 (human)
T28 peptide: VVYDGEEHSV

[29] = target: T29, MAGE-B2 peptide, G1W peptide on HLA-A*02:01 (human)
T29 peptide: WVYDGEEHSV

[30] = target: T30, MAGE-B2 peptide, G1Y peptide on HLA-A*02:01 (human)
T30 peptide: YVYDGEEHSV

[31] = target: T31, MAGE-B2 peptide, V2A peptide on HLA-A*02:01 (human)
T31 peptide: GAYDGEEHSV

[32] = target: T32, MAGE-B2 peptide, V2C peptide on HLA-A*02:01 (human)
T32 peptide: GCYDGEEHSV

[33] = target: T33, MAGE-B2 peptide, V2G peptide on HLA-A*02:01 (human)
T33 peptide: GGYDGEEHSV

[34] = target: T34, MAGE-B2 peptide, V2S peptide on HLA-A*02:01 (human)
T34 peptide: GSYDGEEHSV

[35] = target: T35, MAGE-B2 peptide, D4E peptide on HLA-A*02:01 (human)
T35 peptide: GVYEGEEHSV

[36] = target: T36, MAGE-B2 peptide, D4W peptide on HLA-A*02:01 (human)
T36 peptide: GVYWGEEHSV

[37] = target: T37, MAGE-B2 peptide, G5C peptide on HLA-A*02:01 (human)
T37 peptide: GVYDCEEHSV

[38] = target: T38, MAGE-B2 peptide, G5L peptide on HLA-A*02:01 (human)
T38 peptide: GVYDLEEHSV

[39] = target: T39, MAGE-B2 peptide, G5M peptide on HLA-A*02:01 (human)
T39 peptide: GVYDMEEHSV

Measured: binding result

B1: TCR3 (TCR, V domains shown)
Valpha: AQKVTQAQTEISVVEKEDVTLDCVYETRDTTYYLFWYKQPPSGELVFLIRRNSFDEQNEISGRYSWNFQKSTSSFNFTITASQVVDSAVYFCALSVLRMDSSYKLIFGSGTRLLVRP
Vbeta: NAGVTQTPKFRVLKTGQSMTLLCAQDMNHEYMYWYRQDPGMGLRLIHYSVGEGTTAKGEVPDGYNVSRLKKQNFLLGLESAAPSQTSVYFCASSLQGAGQPQHFGDGTRLSIL
recognises: [1] | [2] | [3] | [4] | [5] | [6] | [7] | [8] | [9] | [10] | [11]

B2: TCR2 (TCR, V domains shown)
Valpha: QKEVEQNSGPLSVPEGAIASLNCTYSDRGSQSFFWYRQYSGKSPELIMSIYSNGDKEDGRFTAQLNKASQYVSLLIRDSQPSDSATYLCAVNIPFSNSGGYQKVTFGTGTKLQVIP
Vbeta: NAGVTQTPKFRVLKTGQSMTLLCAQDMNHEYMYWYRQDPGMGLRLIHYSVGEGTTAKGEVPDGYNVSRLKKQNFLLGLESAAPSQTSVYFCASRHPGQYNQPQHFGDGTRLSIL
recognises: [12] | [13] | [14]

B3: TCR1 (TCR, V domains shown)
Valpha: KQEVTQIPAALSVPEGENLVLNCSFTDSAIYNLQWFRQDPGKGLTSLLLIQSSQREQTSGRLNASLDKSSGRSTLYIAASQPGDSATYLCAAMKTSYDKVIFGPGTSLSVIP
Vbeta: GEEVAQTPKHLVRGEGQKAKLYCAPIKGHSYVFWYQQVLKNEFKFLISFQNENVFDETGMPKERFSAKCLPNSPCSLEIQATKLEDSAVYFCASSQGQGGYGYTFGSGTRLTVV
recognises: [15] | [16] | [17] | [18] | [19] | [20] | [21] | [22] | [23] | [24] | [25] | [26] | [27] | [28] | [29] | [30] | [31] | [32] | [33] | [34] | [35] | [36] | [37] | [38] | [39]
